The values below come from US11149077B2, “Targeted therapeutics based on engineered proteins for tyrosine kinases receptors, including IGF-IR” (BRISTOL-MYERS SQUIBB COMPANY, priority 2006, dated 2021).

The nature of data set [1]: Differential scanning calorimetry (thermal stability, Tm). The note with it: DSC (FIG. 8). In kind it is physicochemical. The protocol:
Differential Scanning calorimetry (DSC) analysis of midscaled clones was performed to determine thermal stability. A 1 mg/ml solution of appropriate clone was scanned in a N-DSC II calorimeter (calorimetry Sciences Corp) by ramping the temperature from 5° C. to 95° C. at a rate of 1 degree per minute under 3 atm pressure. The data was analyzed vs. a control run of the appropriate buffer using a best fit using Orgin Software (OrginLab Corp).
On the technique in general: Differential scanning calorimetry records heat flow against a reference as temperature is scanned.

Data set [2] in a line: Size-exclusion chromatography (solution properties, monomericity). In kind it is physicochemical. The protocol:
Size-exclusion chromatography (SEC) was performed using a TSKgel Super SW2000 column (TOSOH Biosciences, LLC), 4.6 mm×30 cm, on an Agilent 1100 HPLC system with UV detection at A214 nm and A280 nm and with fluorescence detection (excitation=280 nm, emission=350 nm). A buffer of 100 mM sodium sulfate, 100 mM sodium phosphate, 150 mM sodium chloride, pH 6.8 at a flow rate of 100 μL/min was employed. Samples (0.1 to 1 μg each) at a concentration of approximately 100 μg/mL were injected separately. Gel filtration standards (Bio-Rad Laboratories, Hercules, Calif.) were used for molecular weight calibration.

Another data set deals with T1, human IGF-IR (Homo sapiens, UniProt P08069).
T1 construct: The extracellular domain of human IGF-IR (aa 1-932) was cloned into a mammalian expression vector; made in house
Put plainly: Surface plasmon resonance (BIAcore) binding kinetics and affinity on immobilized IGF-IR. On the procedure: The binding kinetics of fibronectin-based scaffold proteins binding proteins to the target was measured using BIAcore 2000 or 3000 biosensors (Pharmacia Biosensor). A capture assay was developed utilizing an IGF-IR-Fc fusion. A similar reagent had been described by Forbes et al. (Forbes et al. 2002, European J. Biochemistry, 269, 961-968). The extracellular domain of human IGF-IR (aa 1-932) was cloned into a mammalian expression vector containing the hinge and constant regions of human IgG1. Transient transfection of the plasmid produced a fusion protein, IGF-IR-Fc which was subsequently purified by Protein A chromatography and captured on Protein A immobilized on Biasensor CM5 chips by amine coupling. The kinetic analysis involved the capture of IGF-IR-Fc on Protein A followed by injection of the fibronectin-based scaffold protein in solution and regeneration of the Protein A surface by glycine pH 2.0. Sensorgrams were obtained at each concentration and were evaluated using a program Biaevaluation, BIA Evaluation 2.0 (BIAcore), to determine the rate constants ka (kon) and kd (koff) The dissociation constant, KD was calculated from the ratio of rate constants koff/kon. Typically, a concentration series (2 uM to 0 uM) of purified fibronectin-based scaffold protein was evaluated for binding to protein A captured human IGF-IR-Fc fusion protein.
(SPR reads the build-up and loss of mass on a sensor chip optically.)

In data set [3] the test system is human pancreatic adenocarcinoma cell line BxPC-3. Put plainly: Cell mitogenesis assay: IGF-I-mediated proliferation, 3H-thymidine. In kind it is cell-based. The settings on record: IGF-I-dependent proliferation, BxPC-3, 24 hour IGF-I exposure. The protocol: The purified, optimized IGF-IR clones were evaluated in cell-based assays in order to confirm activity.
The human pancreatic adenocarcinoma cell line BxPC-3 (ATCC, Manassas, Va.) was plated in 96 well plates at a concentration of 2500 cells per well in RPMI 1640 (Invitrogen, Carlsbad, Calif.) containing 10% fetal bovine serum (Hyclone, Logan, Utah). The following day, cells were washed in starvation medium consisting of RPMI 1640 containing 0.1% BSA (Sigma, St. Louis, Mo.). Washed cells were pre-incubated for four hours in starvation medium containing various concentrations of each IGF-IR antagonist. […] For the final four hours of incubation, cells were exposed to [^3H]-Thymidine (0.25 μCi/well; Perkin Elmer, Wellesley, Mass.). After the incubation period, cells were washed in PBS, lysed in 100 μL buffer consisting of 0.1% SDS+0.5 N NaOH, and counted on a TopCount NXT Scintillation Counter (Perkin Elmer, Wellesley, Mass.). The data were analyzed using SigmaPlot (Systat Software, Point Richmond, Calif.).

Another data set deals with T2, human insulin receptor (Homo sapiens, UniProt P06213).
T2 construct: purchased R&D Systems (Minneapolis, Minn.)
Put plainly: BIAcore binding to immobilized human insulin receptor. The note with it: percentage of signal for insulin binding at similar concentration. On the procedure:
One liter E. coli growths of selected optimized clones were prepared and the proteins were purified.
In brief, 60 ug/mL of IR diluted in acetate 4.5 was coupled/immobilized to a level of 8300 RU and 11.9 ug/mL of VEGF-R2-Fc diluted in acetate 5.0 was immobilized to a level of 9700 RU on flow cells 2 and 3. A blank reference surface was prepared on FC1. […] Fibronectin-based scaffold proteins were diluted to 10 uM in HBS-EP (10 mM Hepes 150 mM NaCl 3 mM EDTA 0.05% Surfactant P20) and injected at 20 uL/min for 3 minutes over the flow cells at 25 C and dissociation was observed over 10 mins.

Data set [4] concerns human plasmacytoma cell line NCI-H929. Put plainly: NCI-H929 cell proliferation assay (serum mediated proliferation). In kind it is cell-based. The note with it: at all concentrations tested. On the procedure:
The human plasmacytoma cell line NCI-H929 (ATCC, Manassas, Va.) was plated in 96 well plates at a concentration of either 10000 or 25000 cells per well in DMEM (Invitrogen, Carlsbad, Calif.) containing 10% fetal bovine serum (Hyclone, Logan, Utah) containing various concentrations of IGF-IR antagonists. Cells were allowed to proliferate for 72 hours at 37° C., 5% CO2. After the proliferation period, cells were exposed to 20 μL of Cell Titer 96 Aqueous Proliferation Reagent (Promega, Madison, Wis.) and allowed to incubate for an additional four hours. Absorbance at 490 nm was measured on a Spectramax Plus 384 (Molecular Devices, Sunnyvale, Calif.), and the resulting data were analyzed using SigmaPlot (Systat Software, Point Richmond, Calif.).

The next data set relates to RH41 sarcoma xenografts. The experiment in a line: In vivo antitumor activity in RH41 sarcoma xenografts. The settings on record: 40 mg/kg, TIWx3, 20 ip. On the procedure:
*Tumor growth inhibition and probability values calculated on day 39. ^aVehicle was 80% PEG400, 20% dH2O. ^bVehicle was PBS. ^cAverage weight change for each group is the mean difference between weight at the start of treatment (Day 20) and after the end of treatment (Day 42). TVDT was calculated for a size of 500 mg Abbreviations used are as follows: po, oral route; ip, intraperitoneal route; LCK, gross log cell kill calculated as LCK=T−C/(3.32×TVDT) where T-C is the difference in time in days for the treated tumors (T) to reach a predetermined size (tumor target size) relative to the vehicle control group (C) divided by the tumor volume doubling time (TVDT) multiplied by 3.32.
Tumors were propagated in nude mice. Tumor passages occurred every four weeks for human RH41 xenografts. With regard to efficacy testing human tumor xenografts were implanted in nude mice. All tumor passages were subcutaneous (sc).
Antitumor activity was evaluated in terms of: a) cures, and for the murine tumor models, increases in lifespan reflected by the relative median survival time (MST) of treated (T) versus control (C) groups (i.e. % T/C values); and b) primary tumor growth inhibition determined by calculating the relative median times for T and C mice to grow tumors of a predetermined “target” size (1 gm for all sc tumor models described) and expressed as T-C values, in days. The definition of a cured mouse was one whose tumor was undetectable, or <35 mg, when assessed more than 10 tumor volume doubling times (TVDTs) post-treatment. The activity criterion for tumor inhibition/reduction was a statistically significant delay in primary tumor growth consistent with 1 gross log cell kill (LCK). The following formula was employed to calculate LCK: LCK=T−C/(3.32×TVDT)
Where, TVDT=median time (days) for control tumors to reach target size—median time (days) for control tumors to reach half the target size. […] The maximum tolerated dose (MTD) is defined as the dose level immediately […] which excessive toxicity (i.e. more than one death) occurred. […] Statistical evaluations of data were performed using Gehan's generalized Wilcoxon test (Gehan, Biometrika 52:203-223, 1965). Western Blot Analysis of 385A08-Fc

Where [5] appears, read: Table 4, optimized 218C04 clones.

Usually Kd stands for the constant that tells how readily two partners part at equilibrium. Higher therefore signals a looser complex. Broadly, the IC50 is the concentration that gives 50% inhibition. A lower IC50 goes with greater potency.

B1: 338A06 (protein)
chain: VSDVPRDLEVVAATPTSLLISWSARLKVARYYRITYGETGGNSPVQEFTVPKNVYTATISGLKPGVDYTITVYAVTKMRDYRPISINYRT
Regarding B1, the “unfolding temperature (Tm)” value in data set [1] was 62 °C. Also, the “solution behaviour by SEC (monomer / aggregation)” value in data set [2] is recorded as “monomeric behavior”. In the data set with human IGF-IR (setting [5]), the Kd is 0.069 nM, the ka was 2.2 1/M*s × 10^+6 and the kd was 4.3 1/s × 10^−4. In data set [3], this molecule showed an IC50 of 10 to 20 nM. For the same molecule, in the data set with human insulin receptor (Table 5), the “% IR Binding at 10 μM” value came to 2%. Further, in the data set with human insulin receptor (Table 8), the “% IR Binding at 10 μM” value was determined as 0%.

B2: 385A08-PEG20-385A08: two 385A08 (SEQ ID NO: 203) domains coupled via Cys97 to a linear 20 kDa bifunctional PEG (conjugate)
chain 1: GVSDVPRDLEVVAATPTSLLISWSARLKVARYYRITYGETGGNSPVQEFTVPKNVYTATISGLKPGVDYTITVYAVTRFRDYQPISINYRTEIDKPCQ
chain 2: GVSDVPRDLEVVAATPTSLLISWSARLKVARYYRITYGETGGNSPVQEFTVPKNVYTATISGLKPGVDYTITVYAVTRFRDYQPISINYRTEIDKPCQ
modifications: 20 kDa bifunctional PEG via Cys97
In the case of B2, in data set [4], the “inhibition of cell growth” value was “approximately 100%”. In the data set with human IGF-IR, the “faster on-rate (ka) relative to unmodified 385A08” value is listed as “approximately two-fold” and the “off-rate (kd) relative to unmodified 385A08” value is listed as “slightly decreased”. In the data set with human IGF-IR (Table 10, PEGylated variants), the ka was 15 1/M*s × 10^+6 and the kd is 0.9 1/s × 10^−4. Also, the “Outcome by (% TGI)” value in the data set with RH41 sarcoma xenografts is “A (A % TGI value of >50% was considered active)”. Besides, the “% TGI” value in the data set on RH41 sarcoma xenografts (calculated on day 39) is on record as 66%. Also, the LCK in the data set on RH41 sarcoma xenografts (gross log cell kill) was 0.6.
